For assay [1], the target named is BRCA2 peptide/HLA-A*02:01 complex (recombinant) (human). The assay can be described thus: SPR.
Assay [2] concerns the target OR1I1 peptide/HLA-A*02:01 complex (recombinant) (human). Put plainly: SPR. On the technique in general: Surface plasmon resonance follows binding to a sensor surface in real time, without labels.
Assay [3] concerns the target OR6C1 peptide/HLA-A*02:01 complex (recombinant) (human). Put plainly: SPR.
In assay [4] the target is ATG9A peptide/HLA-A*02:01 complex (recombinant) (human). Put plainly: SPR.
The target of assay [5] is RCL1 peptide/HLA-A*02:01 complex (recombinant) (human, UniProt P16213 21-119 (Pongo pygmaeus entry)). The assay can be described thus: SPR.
Assay [6] has as its target ZNF566 peptide/HLA-A*02:01 complex (recombinant) (human). The assay can be described thus: SPR.
Assay [7] concerns the target CDC14A peptide/HLA-A*02:01 complex (recombinant) (human). Put plainly: SPR.
Assay [8] addresses NR2E1 peptide/HLA-A*02:01 complex (recombinant) (human). The assay can be described thus: SPR.
The target of assay [9] is PTP4A1 peptide/HLA-A*02:01 complex (recombinant) (human). Put plainly: SPR.
Assay [10] addresses ARNTL peptide/HLA-A*02:01 complex (recombinant) (human). Put plainly: SPR.
Assay [11] has as its target RP1 peptide/HLA-A*02:01 complex (recombinant) (human, UniProt P16213 21-119 (Pongo pygmaeus entry)). Put plainly: SPR.
The target in assay [12] is OR51B6 peptide/HLA-A*02:01 complex (recombinant) (human). Put plainly: SPR.
In assay [13] the target is T1, AFP158/HLA-A*02:01 complex (human).
T1 construct: biotinylated on the BSP by BirA for ELISA and panning; also called biotinylated AFP158/HLA-A*02:01 complex; Bio-AFP158
The assay can be described thus: SPR; vs AS170036 VL1VH1.

Assay [14] concerns the target T1, AFP158/HLA-A*02:01 complex. Put plainly: SPR, scFv-mIgG2aFc from supernatant captured, complex as analyte.
Experimental: (§1) The binding affinity between selected antibodies and AFP158/HLA-A*02:01 complex was determined by surface plasmon resonance (SPR) on a BIAcore T200 instrument (GE Healthcare). The experiment was carried out as follows. The purified sdAb/scFv-mIgG2aFc protein were captured through mIgG2a-Fc onto the sensorchip. […] On-rate (kₐ) and off-rate (kd) were calculated based on association and dissociation curve, and were used to estimate the equilibrium dissociation constant (KD).
(§2) Humanized heavy chains and light chains were combined, and used to produce a series of humanized antibodies. These antibodies were synthesized as scFv-mIgG2aFc and transiently produced using HEK293 cells. The antibodies in the supernatant were subjected to SPR affinity assessment.
Assay [15] deals with T1, AFP158/HLA-A*02:01 complex. The assay is described as above. This is another data set of the same source.
Experimental: as §1, §2

Experimental findings from patent publication US20240279318A1 (NANJING LEGEND BIOTECH, published 2024) are described below.

Where two headings read alike, the source gives them in different places.

B1: AS170036 VL1VH1-VLH98V (scFv)
scFv: QSALTQPRSVSGSPGQSVTISCAGTSSDVGSENYVSWYQQHPGKAPKLMIYQVNKRASGVPDRFSGSKSGNTASLTISGLQAEDEADYYCASYRSSDVNIVFGGGTKLTVLGGGGSGGGGSGGGGSEVQLVESGGGLVQPGGSLRLSCAASGFTFSSYAMSWVRQAPGKGLEWVSTINSGTGSPYYADSVKGRFTISRDNSKNTLYLQMNSLRAEDTAVYYCAKNFFDGSWFLGPPAMDYWGQGTLVTVSSHHHHHH
In the case of B1, the binding result in [1], in assay [2], in assay [3], in [4], in [5] and in assay [6] was “no binding” throughout. In addition, the binding result in assay [7], in assay [8], in [9], in assay [10], in assay [11] and in assay [12] was “no binding” throughout. In assay [13], this molecule came in with an Affinity increase greater than 2 fold.

B2: AS170036 VL1VH1-VLH98A (scFv)
scFv: QSALTQPRSVSGSPGQSVTISCAGTSSDVGSENYVSWYQQHPGKAPKLMIYQVNKRASGVPDRFSGSKSGNTASLTISGLQAEDEADYYCASYRSSDANIVFGGGTKLTVLGGGGSGGGGSGGGGSEVQLVESGGGLVQPGGSLRLSCAASGFTFSSYAMSWVRQAPGKGLEWVSTINSGTGSPYYADSVKGRFTISRDNSKNTLYLQMNSLRAEDTAVYYCAKNFFDGSWFLGPPAMDYWGQGTLVTVSSHHHHHH
As for B2, the binding result in assay [1], in assay [2], in [3], in assay [4], in [5] and in assay [6] was “no binding” each time. Moreover, the binding result in [7], in [8], in [9], in assay [10], in assay [11] and in assay [12] was “no binding” in each case. This molecule yielded an Affinity increase in assay [13] greater than 2 fold.

B3: AS170036 VL1VH1-VLE32W (scFv)
scFv: QSALTQPRSVSGSPGQSVTISCAGTSSDVGSWNYVSWYQQHPGKAPKLMIYQVNKRASGVPDRFSGSKSGNTASLTISGLQAEDEADYYCASYRSSDHNIVFGGGTKLTVLGGGGSGGGGSGGGGSEVQLVESGGGLVQPGGSLRLSCAASGFTFSSYAMSWVRQAPGKGLEWVSTINSGTGSPYYADSVKGRFTISRDNSKNTLYLQMNSLRAEDTAVYYCAKNFFDGSWFLGPPAMDYWGQGTLVTVSSHHHHHH
As to B3, the binding result in assay [1], in [2], in [3], in [4], in assay [5] and in [6] was “no binding” each time. Also, the binding result in [7], in assay [8], in assay [9], in assay [10], in assay [11] and in [12] was “no binding” each time. In [13], this molecule displayed an Affinity increase greater than 2 fold.

B4: AS170036 VL1VH2 scFv-mIgG2aFc (Fc fusion, not shown: a dimerising Fc or GST)
scFv: QSALTQPRSVSGSPGQSVTISCAGTSSDVGSENYVSWYQQHPGKAPKLMIYQVNKRASGVPDRFSGSKSGNTASLTISGLQAEDEADYYCASYRSSDHNIVFGGGTKLTVLGGGGSGGGGSGGGGSEVQLVESGGGLVQPGGSLRLSCTASGFTFSSYAMSWVRQAPGKGLEWVSTINSGTGSPYYADSVKGRFTISRDNSKNTLYLQMNSLRAEDTAMYYCAKNFFDGSWFLGPPAMDYWGQGTLVTVSS
In assay [14], B4 registered a Kd of 380 nM, a dissociation rate constant (koff) of 0.071 s⁻¹ and a kon of 190000 M⁻¹ s⁻¹.

B5: AS170036 VL2VH2 scFv-mIgG2aFc (Fc fusion, not shown: a dimerising Fc or GST)
scFv: QSALTQPRSVSGSPGQSVTISCAGTSSDVGSENYVSWYQQHPGKAPKLLIYQVNKRASGIPDRFSGSKSGNTASLTISGLQAEDEADYYCASYRSSDHNIVFGGGTKLTVLGGGGSGGGGSGGGGSEVQLVESGGGLVQPGGSLRLSCTASGFTFSSYAMSWVRQAPGKGLEWVSTINSGTGSPYYADSVKGRFTISRDNSKNTLYLQMNSLRAEDTAMYYCAKNFFDGSWFLGPPAMDYWGQGTLVTVSS
In the case of B5, in assay [14], the affinity, expressed as Kd, was 390 nM; the koff was found to be 0.072 s⁻¹; the on-rate constant (kon) is 190000 M⁻¹ s⁻¹.

B6: AS170036 VL2VH1 scFv-mIgG2aFc (Fc fusion, not shown: a dimerising Fc or GST)
scFv: QSALTQPRSVSGSPGQSVTISCAGTSSDVGSENYVSWYQQHPGKAPKLLIYQVNKRASGIPDRFSGSKSGNTASLTISGLQAEDEADYYCASYRSSDHNIVFGGGTKLTVLGGGGSGGGGSGGGGSEVQLVESGGGLVQPGGSLRLSCAASGFTFSSYAMSWVRQAPGKGLEWVSTINSGTGSPYYADSVKGRFTISRDNSKNTLYLQMNSLRAEDTAVYYCAKNFFDGSWFLGPPAMDYWGQGTLVTVSS
In assay [14], B6 registered an equilibrium dissociation constant (Kd) of 340 nM, a koff of 0.095 s⁻¹ and a kon of 280000 M⁻¹ s⁻¹.

B7: AS179732 VL1VH1 scFv-mIgG2aFc (Fc fusion, not shown: a dimerising Fc or GST)
scFv: QSVLTQPPSASGTPGQRVTISCTGSSSNIGGNYVNWYQQLPGTAPKLLIYDNSNRASGVPDRFSGSKSGTSASLAISGLQSEDEADYYCASWDDSLSGAVFGGGTKLTVLGGGGSGGGGSGGGGSEVQLVESGGGLVQPGGSLRLSCAASGFTFLNYAMSWVRQAPGKGLEWVSSNSGAGSTYYSDSVKGRFTISRDNSKNTLYLQMNSLRAEDTAVYYCAKGTNVGSWSSLHYWGQGTLVTVSS
As for B7, in assay [15], the Kd worked out at 440 nM, the koff was 0.056 s⁻¹ and the kon was determined as 130000 M⁻¹ s⁻¹.

B8: AS179732 VL1g1VH1g1 scFv-mIgG2aFc (Fc fusion, not shown: a dimerising Fc or GST; small tags and cut ends)
scFv: QSVLTQPPSASGTPGQRVTISCSGSSSNIGGNYVNWYQQLPGTAPKLLIYDNSNRASGVPDRFSGSKSGTSASLAISGLQSEDEADYYCASWDDSLSGAVFGGGTKLTVLGGGGSGGGGSGGGGSEVQLVESGGGLVQPGGSLRLSCAASGFTFLNYAMSWVRQAPGKGLEWVSSNSGAGSTYYADSVKGRFTISRDNSKNTLYLQMNSLRAEDTAVYYCAKGTNVGSWSSLHYWGQGTLVTVSS
In [15], B8 returned a dissociation constant (Kd) of 450 nM, an off-rate (koff) of 0.057 s⁻¹ and a kon of 130000 M⁻¹ s⁻¹.

B9: AS179732 VL1g1VH1g1-N73Y scFv-mIgG2aFc (Fc fusion, not shown: a dimerising Fc or GST)
chain: QSVLTQPPSASGTPGQRVTISCSGSSSNIGGNYVNWYQQLPGTAPKLLIYDNSNRASGVPDRFSGSKSGTSASLAISGLQSEDEADYYCASWDDSLSGAVFGGGTKLTVLGGGGSGGGGSGGGGSEVQLVESGGGLVQPGGSLRLSCAASGFTFLNYAMSWVRQAPGKGLEWVSSNSGAGSTYYADSVKGRFTISRDYSKNTLYLQMNSLRAEDTAVYYCAKGTNVGSWSSLHYWGQGTLVTVSS
notes: Humanized
In assay [15], B9 yielded a Kd of 54 nM.

B10: AS179732 VL1VH1g1 scFv-mIgG2aFc (Fc fusion, not shown: a dimerising Fc or GST; small tags and cut ends)
scFv: QSVLTQPPSASGTPGQRVTISCTGSSSNIGGNYVNWYQQLPGTAPKLLIYDNSNRASGVPDRFSGSKSGTSASLAISGLQSEDEADYYCASWDDSLSGAVFGGGTKLTVLGGGGSGGGGSGGGGSEVQLVESGGGLVQPGGSLRLSCAASGFTFLNYAMSWVRQAPGKGLEWVSSNSGAGSTYYADSVKGRFTISRDNSKNTLYLQMNSLRAEDTAVYYCAKGTNVGSWSSLHYWGQGTLVTVSS
In assay [15], B10 had a Kd of 520 nM, a koff of 0.065 s⁻¹ and a kon of 130000 M⁻¹ s⁻¹.

B11: AS179732 VL1g1VH1 scFv-mIgG2aFc (Fc fusion, not shown: a dimerising Fc or GST; small tags and cut ends)
scFv: QSVLTQPPSASGTPGQRVTISCSGSSSNIGGNYVNWYQQLPGTAPKLLIYDNSNRASGVPDRFSGSKSGTSASLAISGLQSEDEADYYCASWDDSLSGAVFGGGTKLTVLGGGGSGGGGSGGGGSEVQLVESGGGLVQPGGSLRLSCAASGFTFLNYAMSWVRQAPGKGLEWVSSNSGAGSTYYSDSVKGRFTISRDNSKNTLYLQMNSLRAEDTAVYYCAKGTNVGSWSSLHYWGQGTLVTVSS
In the case of B11, in assay [15], binding was put at a Kd of 450 nM, the koff stood at 0.056 s⁻¹ and the on-rate constant (kon) was determined as 120000 M⁻¹ s⁻¹.

The term Kd denotes the equilibrium constant for the complex coming apart. As a reminder, the koff is the rate constant with which the complex falls apart. The term kon denotes a measure of how fast the partners come together. A low value points to slower complex formation.
